We go through one protein from PMC10630519, “Structural insights into the modulation of coronavirus spike tilting and infectivity by hinge glycans” (Nature Communications, 2023).

One may read the stoichiometry N as a count of units in the complex or per binding partner.

The series deals with the molecule itself. Nature of the series: cryo-EM structure; cryoET and subtomogram averaging of spikes on vitrified, chemically unfixed HCoV-NL63 virions in NTE buffer (20 mM Tris pH 8.0, 120 mM NaCl, 1 mM EDTA); 18,356 spike subvolumes; C3 symmetry imposed; focused classification of RBD and domain 0.

B1: human coronavirus NL63 (HCoV-NL63) spike glycoprotein (S) (natural protein)
chain: CNSNANLSMLQLGVPDNSSTIVTGLLPTHWFCANQSTSVYSANGFFYIDVGNHRSAFALHTGYYDANQYYIYVTNEIGLNASVTLKICKFSRNTTFDFLSNASSSFDCIVNLLFTEQLGAPLGITISGETVRLHLYNVTRTFYVPAAYKLTKLSVKCYFNYSCVFSVVNATVTVNVTTHNGRVVNYTVCDDCNGYTDNIFSVQQDGRIPNGFPFNNWFLLTNGSTLVDGVSRLYQPLRLTCLWPVPGLKSSTGFVYFNATGSDVNCNGYQHNSVVDVMRYNLNFSANSLDNLKSGVIVFKTLQYDVLFYCSNSSSGVLDTTIPFGPSSQPYYCFINSTINTTHVSTFVGILPPTVREIVVARTGQFYINGFKYFDLGFIEAVNFNVTTASATDFWTVAFATFVDVLVNVSATNIQNLLYCDSPFEKLQCEHLQFGLQDGFYSANFLDDNVLPETYVALPIYYQHTDINFTATASFGGSCYVCKPHQVNISLNGNTSVCVRTSHFSIRYIYNRVKSGSPGDSSWHIYLKSGTCPFSFSKLNNFQKFKTICFSTVEVPGSCNFPLEATWHYTSYTIVGALYVTWSEGNSITGVPYPVSGIREFSNLVLNNCTKYNIYDYVGTGIIRSSNQSLAGGITYVSNSGNLLGFKNVSTGNIFIVTPCNQPDQVAVYQQSIIGAMTAVNESRYGLQNLLQLPNFYYVSNGGNNCTTAVMTYSNFGICADGSLIPVRPRNSSDNGISAIITANLSIPSNWTTSVQVEYLQITSTPIVVDCATYVCNGNPRCKNLLKQYTSACKTIEDALRLSAHLETNDVSSMLTFDSNAFSLANVTSFGDYNLSSVLPQRNIRSSRIAGRSALEDLLFSKVVTSGLGTVDVDYKSCTKGLSIADLACAQYYNGIMVLPGVADAERMAMYTGSLIGGMVLGGLTSAAAIPFSLALQARLNYVALQTDVLQENQKILAASFNKAINNIVASFSSVNDAITQTAEAIHTVTIALNKIQDVVNQQGSALNHLTSQLRHNFQAISNSIQAIYDRLDSIQADQQVDRLITGRLAALNAFVSQVLNKYTEVRGSRRLAQQKINECVKSQSNRYGFCGNGTHIFSIVNSAPDGLLFLHTVLLPTDYKNVKAWSGICVDGIYGYVLRQPNLVLYSDNGVFRVTSRVMFQPRLPVLSDFVQIYNCNVTFVNISRVELHTVIPDYVDVNKTLQEFAQNLPKYVKPNFDLTPFNLTYLNLSSELKQLEAKTASLFQTTVELQGLIDQINSTYVDLKLLNRFENYIKWPWWVWLIISVVFVVLLSLLVFCCLSTGCCGCCNCLTSSMRGCCDCGSTKLPYYEFEKVHVQ
modifications: N-linked glycans at 39 N-glycosylation sites (among them N240, N354, N358, N426, N486, N506, N512, N749, N844, N852, N1111, N1196, N1201, N1218, N1242, N1247, N1277)
notes: Spike glycoprotein S of human coronavirus NL63 (virus from BEI Resources NR-470), full-length S in the viral envelope; not cleaved at S1/S2 (single band of about 250 kD); Native membrane-anchored trimer on virions; The model covers the crown, residues 1-1224; the stalk (1216-1297) is only a predicted model; also called S trimer; S protomer; source: no chemical fixation
Regarding B1, the “stoichiometry N” value amounted to 3.
